Data reported in PMC11979002.

Target: HLA-DQ2.2 (DQA1*02:01/DQB1*02:02) with the covalently linked glutL1 peptide
Assay: SPR; Biacore T200; biotinylated HLA-DQ2 molecules immobilised on a streptavidin chip (about 3000 RU), biotinylated HLA-DQ8glia-α1 in the reference cell; serial dilutions of TCR flowed at 10 μl/min in 20 mM HEPES pH 7.5, 150 mM NaCl, 1 mM EDTA, 0.005% TWEEN 20; steady-state KD, 1:1 (single ligand) binding model

For G9 TCR, β-chain S58A, the Kd was 7.8 µM.
In the case of G9 TCR, β-chain R75A, the Kd is reported as 10.2 µM.
